US11275076B2, “Systems and methods for assessing blood platelet function” (Medtronic, Inc., priority 2016, dated 2022)

Tested on: fresh whole blood
Test: drop distance cycle tests (ferromagnetic washer) assessing clot retraction in blood samples
Assay type: cell-based
Settings: FIG. 4; for clot retraction (object drop distance over time): compared with fresh whole blood without platelet inhibitor, tests began after assumed clot initiation
From the text: Referring now to FIG. 3, a schematic drawing of a predicted trace 100 generated by successive drop distance test cycles of an object (e.g., the ferromagnetic object 32 described above) in blood over time that may be representative of data obtainable by an embodiment of a blood analysis system or apparatus of the present disclosure (e.g., the blood analysis system 20 of FIGS. 1 and 2). For example, and with additional reference to FIGS. 1 and 2, each test cycle includes the object 32 caused to move by the electromagnetic 34 toward the top of the chamber 30 and then allowed to drop; the drop distance of the object 32 is determined or sensed (e.g., an absolute drop distance is determined or sensed once the object 32 is at rest within the blood 40, or is determined or sensed at the end of a predetermined test cycle period). This so-determined drop distance serves as a single data point on the trace 100. The same drop distance test cycle is repeated for the same blood sample 40, at regular or irregular time intervals, over the course of an assessment time period with the result of each successive drop distance test cycle providing an additional data point from which the trace 100 is generated. (i.e., the determined “object drop distance” is plotted relative to the Y-axis at the corresponding point in time over the assessment time period along the X-axis).
As a point of reference, FIG. 4 presents the results of the drop distance cycle tests described above (using a ferromagnetic washer as the object) with three different blood samples. The first blood sample (“FWB”) consisted of fresh whole blood. The second blood sample (“FWB+5 ug/mL Reopro”) consisted of the fresh whole blood of the first sample and the platelet inhibitor Reopro at a concentration of 5 μg/mL. […] As explained in U.S. Pat. No. 8,921,115, clot strength can be another indicator of platelet function, and can be assessed (along with platelet retraction) with some systems and methods of the present disclosure. […]

B1: Reopro: the platelet inhibitor Reopro (antibody, chains of the INN, looked up, V domains shown)
VH: EVQLQQSGTVLARPGASVKMSCEASGYTFTNYWMHWVKQRPGQGLEWIGAIYPGNSDTSYIQKFKGKAKLTAVTSTTSVYMELSSLTNEDSAVYYCTLYDGYYVFAYWGQGTLVTVSA
VL: EIVLTQSPVTLSVTPGDSVSLSCRASRDISNNLHWFQQTSHESPRLLIKYASQSMSGIPSRFSGSGSGTDFTLSINSVETEDFGMYFCQQTNSWPYTFGGGTKLEIK
modifications: Fab
In the case of B1, the “object movement profile, dependence on platelet inhibitor concentration” value (comparison of 5 μg/mL and 10 μg/mL Reopro in fresh whole blood) is reported as “dose dependent”, the “clot retraction (object drop distance over time)” value (fresh whole blood + 5 μg/mL Reopro) is reported as “first blood sample (with normal platelet function) showed greater clot retraction that the second and third blood samples” and the “clot retraction (object drop distance over time)” value (fresh whole blood + 10 μg/mL Reopro) is reported as “first blood sample (with normal platelet function) showed greater clot retraction that the second and third blood samples”.
